In US20230365929A1, “METHOD OF DIFFERENTIATION OF PLURIPOTENT STEM CELLS TO RETINAL PIGMENT EPITHELIUM CELLS” (R.P. SCHERER TECHNOLOGIES, LLC, priority 2022, published 2023):

System: Human induced pluripotent stem cells (hiPSCs)
Experiment: RPE-specific markers expression in hiPSCs differentiated into RPE cells (RTqPCR; FACS)
Format: cell-based
Method: Day 0: overall undifferentiated and tight hiPSC morphology was confirmed to be at close to 100% confluency. Otherwise, the cells were fed once more with 4 ml prewarmed iPS Brew medium and instead differentiation was initiate the next day. KSR medium (4 ml needed per 6-well), PD0325901 (PD)/SB431542 (SB)/dorsomorphin (DM) aliquots, as well as Activin A were prepared and/or prewarmed. After thawing and thoroughly mixing all reagents, […] (1:1000 from 1 mM stock), […] (1:2000 from 10 mM stock), […] (1:2000 from 0.5 mM stock) and […] (1:400 from 10 μg/ml stock) were added to 4 ml KSR medium per confluent hiPSC culture well, after vigorously agitating culture plates and completely soaking off iPS Brew medium.
Days 1 and 2: media was prepared as above and old medium replaced on culture wells by 4 ml fresh differentiation medium per well, following vigorous agitation and complete media aspiration.
Day 3: KSR medium with Activin A only was prepared and old medium was replaced on culture wells by 4 ml fresh ActA-only differentiation medium per well, following vigorous agitation and complete media aspiration.
Day 4: fresh KSR+ActA differentiation medium was prepared and feed with 8 ml per well.
Second week: cells were fed daily with 4 ml per 6-well and 8 ml over the weekend.
Third and fourth weeks: no more small molecules were applied during the third and fourth weeks of differentiation. Only Activin A was added to basal media (either KSR or B27 medium) Activin A was added daily to prewarmed basal media, and old medium replaced on cells (1:100 thoroughly mixed).
Day 29 (week 5): newly coated dishes were prepared by coating 12-well (5 μl) or 6-well format (12 μl iM) with 4 x iMatrix-511 in PBS for 1 h at 37° C. KSR medium was prepared and prewarmed for splitting procedure. Differentiated cells were washed with PBS once (4 ml) or twice (2×2 ml), then 1 ml prewarmed TrypLE Se-lec was added. Cells were dissociated using a 1 ml pipette by pipetting up and down several times and results were checked under the microscope. Cell suspension was transferred to 15 ml tube and centrifuged at 300 g for 2 min. A portion of the cells was transferred into a 1.5 ml tube for downstream FACS and/or RT-qPCR analysis. Cells were resuspended in an appropriate amount of KSR medium and cell titer was determined using a Neubauer chamber. 400,000 cells per cm^2 were plated out in 6-well (with 4 ml KSR medium with or without Activin A24) or 12-well format (2 ml medium).
Samples to be analyzed by RT-qPCR were cells directly lysed from culture wells using RA1 buffer from the RNA isolation kit. […] RNA concentration was measured on NanoDrop monitoring A260/280 and A260/230 ratios. […]

B1: Activin A (protein, UniProt P08476 311-426, looked up)
Inhibin beta A chain: GLECDGKVNICCKKQFFVSFKDIGWNDWIIAPSGYHANYCEGECPSHIAGTSGSSLSFHSTVINHYRMRGHSPFANLKSCCVPTKLRPMSMLYYDDGQNIIKKDIQNMIVEECGCS
modifications: homodimer
notes: member of the TGFβ family of proteins; disulfide-linked homodimer (two beta-A chains)
RPE gene expression (Activin A treatment initiated after signaling inhibition (PSD then A) vs standard simultaneous protocol, FIG. 6): reduced RPE gene expression
induction of RPE cell fate (RTqPCR (OTX2, MITF, PMEL), complete withdrawal of the three small molecules, FIG. 5): insufficient for inducing RPE cell fate
induction of the RPE phenotype (RTqPCR of RPE-specific markers, non-treated vs Activin A only vs PSD+A, FIG. 2C): not sufficient to induce the RPE phenotype
RPE induction (titration of Activin A: concentration below 20 ng/ml or complete withdrawal, FIG. 7): inferior RPE induction
